Assay [1] deals with mouse TIM3 (mouse) (UniProt Q8VIM0). In words: binding to activated mouse T cells; method not stated.
Assay [2] shares this target. Put plainly: binding to activated mouse T cells, compared with TIM3.18 on human TIM-3.

mouse TIM3 (mouse), sequence (Q8VIM0 20-281): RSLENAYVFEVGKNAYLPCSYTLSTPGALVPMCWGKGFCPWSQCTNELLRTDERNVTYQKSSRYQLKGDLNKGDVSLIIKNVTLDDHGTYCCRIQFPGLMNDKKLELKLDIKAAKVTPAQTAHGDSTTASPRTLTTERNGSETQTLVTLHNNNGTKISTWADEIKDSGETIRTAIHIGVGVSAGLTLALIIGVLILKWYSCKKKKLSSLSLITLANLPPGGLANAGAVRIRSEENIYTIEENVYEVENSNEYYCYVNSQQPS

Turning to “RMT3-23, rat anti-mouse TIM-3 commercial antibody (Bio-X-Cell)”, in the assay with mouse TIM3 (mouse) [1], the EC50 was found to be 1.7 nM. The substance also yielded a fold weaker EC50 than TIM3.18 on human TIM-3 with mouse TIM3 (mouse) [2] of 17 fold.

As a reminder, the EC50 is the concentration at which the effect is half-maximal. The low end stands for a more potent agent, the high end for a less potent agent.
